In the domain aggregation screens of Martell et al. (2025):

assay: soluble fraction after stress (log2 fold change); higher = more stays soluble; pooled small domains, quantitative proteomics; conditions: stress: 50 degC
Method in brief: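 The measure of aggregation propensity here is the base-two logarithm of the fold change in the soluble amount of each protein after stress. A higher value means more of that protein stays in solution. Stress was applied at 50°C to pooled libraries of small protein domains, read out by high-throughput quantitative proteomics.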

Row | Sequence | soluble fraction (log2)
1 | HMNILKAPMPGLILDVIVKESDLVKKGDPVIILEAMKMENILSSPVDGIVKEIKVNPQQTVEKNNTLIKFE | -0.0546
2 | HMNPSPYLRRHLSGDWGDLDEDDRRSNDAALASGEARLLSSYQVDPDLKLWIITEWDRSVTTLLLPSE | -0.0802
3 | HMTSVQDLLRNGDRVGYQNGSTVKYWLEEMGFHKKDLLGYVTVEEYAEALQRGSGNGGVSAIVD | -0.961
4 | HMAKNSVLTIELWNSTAFKWRKDTEPYSESMSVDFNRSVRLTDGISIMFSKFGFVPGIQYLIPLQT | -0.0652
5 | HMTIDANAIEKMVLDLIGEHPNEWGRYRDGDKKVQGFFVGQIMKATSGQADGKIVNQILSQHAEA | -0.115
6 | HMKDITAVISKKKGRDYYYIIVSYHLSNGKRVQKWIKTEFSVNGNNKRKLEQKRIEILQEWQNKLV | -0.642
7 | HMHKLTIEEALNYKTPANAGGPYSGKPFRDIYDQRGKAAVISFAKYYLSKATPEDPMVEVYRTLLDGAMEL | -0.875
8 | HMYIEKTAYINDTAVNVRKSATTDSDVIKVLALNTEITIIGEENDWYKVKSGNDIGYIAKRLVSDQKKE | 0.0858
9 | HMNVPATAEAYEALLADAESVGKSLWGHEAKRFAAEQALLSAGLREVIQVDPDKARELALRLRGLLDEYRG | 0.13
10 | HMQNNKITIYISGAVNRPGIVTIESDKRLYDAVELLGGTTKEADLNGVNLSVRLEDEQHYIIPKIGEA | -0.0996
11 | HMQMGLNEAYRVLHVSPDAPWREVQSAYKERMAKSHPDKVSHLGEELQEKAKELTVEINKAYNTIKRYKK | 0.194
12 | HMSLDTASDKELLGLIVSEPIATRVLDAFRTLDATLFRTTPAELAAAAGVSSEHAQKIKAVAEIAARMLKP | -0.377
13 | HMTKTSQEDEDIMRHLDELHTRWPFLGQRKLIEELKDQGIQIGRKRLRRLMKVMGIEAIAPK | -1.29
14 | HMPAVTEQTKTNLRRAFWQLYEQKPIQKITVKQITDLAGYNRGTFYLYFKDVYDLLDDIENK | -0.704
15 | HMVVVVELTENEKAVQDVLTKNEGSLEISDLKTKLELSGKQWDKALKGLAKHGITQVAKVDGVVTVSL | -0.303
16 | HMPVFSAEQVAKAEADVQKVANKVQEAGADVEKLTTIHNWLLAREKYMPPDLFSTANQIIATAFQKAG | 0.112
17 | HMNDLIKMPYLVGQLYDDVASNQEYADFQFKITEGNDPDKQPGEIMKQDPAADIMVKKNAEVELLVNG | 0.247
18 | HMNADAIIGRMGKVTEPITPDGYGRVEIDGDSWKATAVGGVAIAEGTRVSVVSLDSIIITVKTV | -0.293
19 | HMENSMDTDWDVSGVDPSQYRLLFSTLGAIAGVKDVGLNPDGLKIIHTPEALPAIKQAFDANNLKLKMRTN | 0.163
20 | HMRKTIQDFLSSNKVDIAKLLTLALEKTKEDLYKNLSYNLTNKELEKLKLLIKKREQGIPFAYLS | -0.0368
21 | HMRADYVGGLDPAGDNFLALRTGPGSGYAMILPMGPGTFVTVLRRNGKWLLVELEDGTRGWAYGSYILG | -2.84
22 | HMRRMAYLVGQRGLAMGDFISGTGQVRIGDTVWRAEAVEGELVRTGDTVVVEGAKMTTAIVRRVM | -0.351
23 | HMNNTIKFFVSQDDDSTRLDVFLSKKIENLTRSNIKKFINLNNVKINKATINSPSKKVKLYDEIEIKFSS | -1.72
24 | HMNINTEMEKVSYSLGVNIASSLKQQGWELDAKSLSDAFVDVFNGNKLLIDEKEASSILQNYQQKIANK | -0.144
25 | HMTEWDDATVKDAVEYFMSVNGRVPTVTDFKKENGLPSHPVIKQRYKINLHEWLNKNFPTYY | -0.544
26 | HMRKLTDRQRQILDLIKTIIAETGAPPTRAEISTALGFKSANAAQEHLQALAQKGMIDLVSGASRGIRLRG | -0.379
27 | HMSDLQTGDINQDGTVDEKDLSLLHSYNLELIKTISNAADLNEDGVINGLDEAYLKRLFLQNSDP | -0.0614
28 | HMEQYFEDEELNDKFLEFLAMRKRVRKPVQTDRGMKMLLTSLHKLSGGDVGLMKQIIDQSLDNEWKKFVA | -0.673

Row | Sequence | soluble fraction (log2)
29 | HMPRPFPELTTREHDILALIARGWSNGRIADHLSLSGKTVSNYVSNILGKLQVTARAEAAERAREAGMGQ | -0.00905
30 | HMNEFNEVVPDSLEGERLDRLLAFIGNISRSEASNIIKGGEVLINGKVVTRPSFKVTLGNRVEFSIRD | -0.387
31 | HMPQNLQDQLFELILSRYPRRADAVEDLANILHLGKDPVYRRLRGDTFLSPLEISTLALHFRISLDALIV | -2.55
32 | HMSFNGTILSNYQKTYPNLAKFTYDQANDALVYEGNFIKLNGYGLSRIDPVFFNMNPDEIFIFIKNG | -3.51
33 | HMTVKRNLVQEILRLKFRHPENFMPNRAFYQEVGINQMRWWDIFYGRKNINQEEYIALSKYF | -0.237
34 | HMPTEAIVLQQIQIRQSPSGNSKSLQQILPGAKIKITSESSVKGWKQVSLDGGQKGWIPTAAIGL | -0.0262
35 | HMDLQHQLTPRLKRLRLSGILETLEVRNQQAIAEKWSYVEFLTRLAEDEVERRDHKQLTLRLR | -0.499
36 | HMNIFKLYEENIGPLTPMIADILKEDEAEFPDYWIREAIEIAVKKNARNWKYVHAVLESWQKE | -3.38
37 | HMPDAIPLETIIKNVNVLAGFLINSKTFTEDDIVMAYNNIMKIKGDHTDEKTLTNDVYTLLTEMN | -0.469
38 | HMEPREALDGLISERGETYASISRLLGRNSAYIQQFIKRGSPARLDQSDIALLALHFDVPVEMLGGKE | -0.42
39 | HMVKSYEVPDVSNLTVLEAEAKLQEMGFEIDEEQKEISSSDIESGRVVKTSPQAGSKRKEGAIITLYVSSG | 0.163
40 | HMIEFYTMQDMFYFKLTGDNTSRERREALGKILGIGYGNATQMVSRLNNYGISKEEFSKAIEEIEKQLEA | -2.8
41 | HMDLLKANNLSQINVDKLTDEEILKYSQQLKQSGLTESQAEQIAIARGMPATEIAKLKQRLISLTNMQ | 0.133
42 | HMSEYVIVTGEKVNLRVGPGMDYEIAGQVVKGDKLELLASEGDWSKVKTGSGSIYYISSSLVQKA | -0.238
43 | HMQKIEKVDYGTFLKMIENGEIDQVNLTEKKISFTTDKDAETVYETGRVEDPNIVDRLYQADVEFTQEI | 0.207
44 | HMADIWDLLRSEYKLTETDVRMLTDMLPDELMNDFRSEVLALRDRMNRYKVNNPKSYVVTSLKNFIIQHTP | -0.263
45 | HMSNEWIEISAKTVDDAINEGLIRLGTTTDKMDVEVLEKESAGFLGFIGKHDAKIRVRFKEV | 0.105
46 | HMIDEPENLIQEDKMVNIIYDLALLEGVKTFNSSNFQSVKSNDFVYKKYKIDSLQFAKSTQFYASDINR | -0.168
47 | HMKHFFIIAGGKIEDAFAIEVLKGFAEKTVIAADSGMEFLRRNEIVPQVIIGDFDSVSKETLEWFQKK | -0.703
48 | HMKKSRLHSVLEEIPGIGEKRRKILIKHFGTVEAIKKSSLEELARIKGMNRRAAQNVLEYLK | -0.0583
49 | HMQLPDLDEIRQMRKRLDLSQRELAALAGVSQSLIAKIEKGSIDPSYDNVRKIFNAFENILKKRALE | -0.255
50 | HMSAPTAFSERELELLAGMRRGASNKAMAEQLFISVNTVKYHRANLMRKLGARDRNEALEVAARLG | -0.0071
51 | HMKKEETEAEELEEKFTSAQIKQAYGILNDPRYKQGNYSGAVNVINKIAPGLADHPDVKNALKRANEEL | 0.0375
52 | HMAIGSRLKVTTDATNLNIRSTPSTEGDIVGKAAHHEIVTLVEKTDDSWWKIKTNDGEEGYAYAQYLSPV | 0.12
53 | HMENMRLILASNLRRIREERRLSLNKVSELTGVSKSMLGQIERGESNPTLQTVWKIANGLRVSLTDLTEVP | -0.0326
54 | HMDLANLQNGQTLPLQRDVEVISIPFGKTISLSEDSVVSIMQAKGSSVSVAYEGRLYLIEGSNLDALGLEP | -0.736
55 | HMQGEAMQETVKKLDAFLQDNSVSMSALARALGVSPSLISQFRSGSYKGDSQAIAAKINSYIDNHNKKSK | 0.0765
